Target: T1, GST-ORAI1 (65-87) (Homo sapiens, UniProt Q96D31)
T1 construct: A plasmid encoding ORAI1 (65-87) as a GST fusion protein; made in house; host or cells: E. coli BL21 (DE3), pGEX-2T
Assay: GST pull down assay with GST-ORAI1 (65-87)
Format: binding
Excerpt: A conserved region of ORAI1 immediately preceding, and extending into, ORAI1 transmembrane segment 1 is implicated in channel opening (Feske et al., Nature 441: 179-185 (2006); Li et al., J. Biol. Chem. 282: 29448-29456 (2007); Park et al., Cell 136: 876-890 (2009); Derler et al., J. Biol. Chem. 284: 15903-15915 (2009)), and GFP-ORAI1 (48-91) expressed in mammalian cells co-immunoprecipitates with STIM1 (342-448) (Park et al., Cell 136: 876-890 (2009)). Here again, the protein-protein interaction is direct, because purified recombinant STIM1CT bound to purified GST-ORAI1 (65-87) (FIG. 2C).
The cDNAs encoding mouse STIM 1^CT fragments (residues 233-685, 233-666, 233-600, 233-531, 233-498, or 233-463) were amplified via PCR and cloned into the pProEX HTb vector (Invitrogen) between the BamHI and XhoI sites for expression as His-tagged proteins. For production of the C-terminal cytoplasmic tail of ORAI 1 as a GST fusion protein, coupled to GST through the flexible linker—GSGSRGSPEF—(SEQ ID NO: 1), cDNA encoding ORAI1 residues 259-301 was amplified using PCR and cloned into the pGEX-4T-1 vector (GE Healthcare) between the BamHI and NotI sites. A plasmid encoding ORAI1 (65-87) as a GST fusion protein with the linker—GSGGGS—(SEQ ID NO: 9) was produced by inserting the corresponding Cdna into the pGEX-2T vector (GE Healthcare). […]

T1 sequence (Q96D31 65-87 limits assumed): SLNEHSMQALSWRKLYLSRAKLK

Substance: STIM1^CT: cytoplasmic region of STIM1, mouse residues 233-685, His-tagged recombinant protein expressed in E coli
- binding to purified GST-ORAI1 (65-87): bound
- strength of interaction compared with STIM1^CT-ORAI1^CT interaction: weaker
